The values that follow come from patent US20250295796A1, “CELL PENETRATING POLYPEPTIDES (CPPS) AND THEIR USE IN HUMAN THERAPY” (RDP PHARMA AG, priority 2021, published 2025).

In data set [1] the test system is HEP3B. The data set can be described thus: Monolayer assay, 96h treatment, HEP3B. Format: cell-based, human. As for the experimental part: (§1) Monolayer Assay Propidium Iodid (PI). Cells were harvested from exponential phase cultures, counted and depending on the cell line 3.000 to 20.000 cells were plated in 96-well flat-bottom microtiter plates After a 24 h recovery period to allow cells to resume exponential growth, 10 μl of culture medium (four control wells/plate) or culture medium with the test compound were added by a liquid handling robotic system and treatment continued for four days. Compounds were applied in half-log increments at 10 concentrations in duplicate. Three independent experiments were performed. Cells were then washed with 200 μl PBS to remove dead cells followed by addition of 200 μl of a solution containing 7 μg/ml propidium iodide (PI) and 0.1% (v/v) Triton X-100. After an incubation period of 1-2 h at room temperature, fluorescence (FU) was measured using the Cytofluor 4000 microplate reader (excitation λ=530 nm, emission λ=620 nm) to quantify the amount of attached viable cells. Concentrations required for 50% inhibition of cell growth (IC50) were calculated by non-linear regression (log[conc. of inhibitor]versus response (% T/C)) using the analysis software GraphPad Prism®, Prism 5 for windows, version 5.01 (GraphPad Software Inc., CA).
(§2) CROMOC36—in vitro activity Human hepatocellular carcinoma cell lines IC50 values of CROMOC36 and Sorafenib, 96h treatment. […]

The subject of data set [2] is LIXF 575L. As to the kind of experiment: Monolayer assay, 96h treatment, LIXF 575L. Format: cell-based, human. As for the experimental part:
as §1, §2

Data set [3] concerns PAXF 1657L. As to the kind of experiment: Propidium iodide monolayer assay, PAXF 1657L. Type of data set: cell-based, human. The settings on record: four days. As for the experimental part:
as §1, with “Concentrations required for 50% inhibition of cell growth (IC50) were calculated by non-linear regression (log[conc. of inhibitor]versus response (% T/C)) using the analysis software GraphPad Prism®, Prism 5 for windows, version 5.01 (GraphPad Software Inc., CA).” left out
(§3) CROMOC36—in vitro activity Human pancreatic carcinoma cell lines. […] Antitumor activity was assessed after four days of CROMOC36 treatment using a propidium iodide based monolayer proliferation assay. […]

Data set [4] has as its system HUPT3. As to the kind of experiment: Propidium iodide monolayer assay, HUPT3. Type of data set: cell-based, human. The settings on record: HUPT3, four days. On the procedure:
as §1, with “Concentrations required for 50% inhibition of cell growth (IC50) were calculated by non-linear regression (log[conc. of inhibitor]versus response (% T/C)) using the analysis software GraphPad Prism®, Prism 5 for windows, version 5.01 (GraphPad Software Inc., CA).” left out
as §3

Data set [5] has as its system DNA double strand breaks (Phospho-H2AX, Phospho-H3). As to the kind of experiment: Immunohistochemistry of liver specimens after single IV treatment. Format: in vivo, Male Sprague Dawley Rats. The settings on record: samples after 13-15 days. The source says:
FIG. 8: Immunohistochemistry (IHC) analysis paraffin embedded liver specimens of Male Sprague Dawley Rats after single IV treatment with CROMOC36. Samples were collected after 13-15 days and IHC was used to assess the Histone surrogate-markers for DNA double strand breaks Phospho-H2AX and Phospho-H3 for analyzing the persistence of DNA double stand breaks (DSBs) at very high CROMOC concentrations in tumors in comparison to the KI67marker.
As a proof of the nuclease activity in vivo an Immunohistochemistry (IHC) analysis of paraffin embedded liver specimens of Male Sprague Dawley Rats after single IV treatment with CROMOC36.

In data set [6] the test system is M5076 ovarian reticulum sarcoma tumor cell line. The data set can be described thus: M5076 artificial hepatic metastasis model, i.v. route.
The subject of data set [7] is immortalized non-tumor cells. As to the kind of experiment: SRB assay, cytotoxicity to non-tumor cells versus cancer cells.

B1: CROMOC36: single chain PvuII endonuclease fused at its C-terminus to DDM36, PEGylated final product used in the Examples (protein)
chain: MSHPDLNKLLELWPHIQEYQDLALKHGINDIFQDNGGKLLQVLLITGLTVLPGREGNDAVDNAGQEYELKSINIDLTKGFSTHHHMNPVIIAKYRQVPWIFAIYRGIAIEAIYRLEPKDLEFYYDKWERKWYSDGHKDINNPKIPVKYVMEHGTKIYGSGGSGGSSHPDLNKLLELWPHIQEYQDLALKHGINDIFQDNGGKLLQVLLITGLTVLPGREGNDAVDNAGQEYELKSINIDLTKGFSTHHHMNPVIIAKYRQVPWIFAIYRGIAIEAIYRLEPKDLEFYYDKWERKWYSDGHKDINNPKIPVKYVMEHGTKIYGNSGSGKKKKKGKGSGLGSGKKKDPLGSGLGSGKKKKKGKGSGLGSGKKKDPLGST
modifications: PEGylated; peptide, CROMOC36
In the case of B1, the concentration for half-maximal inhibition (IC50) in data set [1] was 12.2 nM; in data set [2] it was 17 nM; in data set [3] it was 4.73 nM; in data set [4], ~10 nM. Besides, the “DNA double strand breaks in liver (Phospho-H2AX, Phospho-H3 IHC)” value in data set [5] is on record as “DSBs are induced”. For the same molecule, the “% ILS (mean survival time versus control group)” value in data set [6] (CROMOC36 16 mg/kg i.v. q7dx3, Doxorubicin 6 mg/kg q4dx3 (MTD)) is recorded as 68%. For the same molecule, in data set [6] (i.v. route, 16 mg/kg q7dx3), the “antimetastatic activity in Liver M5076 allograft” value is reported as “strong antimetastatic activity”. The “times less cytotoxic to immortalized non-tumor cells than to cancer cells” value in data set [7] is 40->100.
